± gives the uncertainty stated by the source.
Assay: protein stability index of a GFP-peptide fusion (yeast GPS) (PSI 1-4); higher = more stable; sorted into four equal gates, so the index is relative within each strain
How it was run: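 Yeast carrying a pooled library were grown to mid-log phase in leucine-free medium. Each library plasmid expresses Cherry and has a tiled 17-residue yeast protein peptide fused downstream of GFP. Cells were sorted into four equal gates by GFP/Cherry ratio, and plasmids from each gate were PCR-amplified, Illumina-sequenced and assigned to strains by barcode. Summing, across gates, the read frequency times the gate number gave each peptide's protein stability index.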

Row | Sequence | protein stability index (doa10∆) | protein stability index (pdr5∆) | protein stability index (san1∆) | protein stability index (ubr1∆)
1 | SDTLKEFKIEQNNEQNP [YDL116W/NUP84] | 2.79 ± 0.23 | 3.01 ± 0.15 | 2.8 ± 0.1 | 3.3 ± 0.22
2 | LGYKDTSVIQDLSEKIL [BRR2] | 2.77 ± 0.098 | 2.8 ± 0.098 | 2.81 ± 0.063 | 2.89 ± 0.065
3 | VDGMAKVPIGLILQRLK [RGR1] | 2.51 ± 0.1 | 2.67 ± 0.091 | 2.22 ± 0.15 | 2.49 ± 0.057
4 | YTDELEEDVYLDPLARV [FAS2] | 3.33 ± 0.095 | 3.32 ± 0.1 | 3.54 ± 0.07 | 3.44 ± 0.053
5 | TYGFLTPNLWAEQPLPV [RPS2] | 1.21 ± 0.056 | 1.38 ± 0.081 | 1.37 ± 0.11 | 1.54 ± 0.059
6 | LEIALFKYRKARLEPGT [RPO31] | 3.24 ± 0.17 | 1.69 ± 0.13 | 2.37 ± 0.12 | 2.85 ± 0.09
7 | LSKVSLLTPDIGAVYSG [PRE8] | 1.68 ± 0.055 | 1.99 ± 0.073 | 1.73 ± 0.09 | 2.07 ± 0.071
8 | IKEKFDEFIKTHEDLPK [IRR1] | 2.7 ± 0.1 | 2.68 ± 0.095 | 2.62 ± 0.065 | 3.01 ± 0.071
9 | IYAKQQEQLKQMDQQLQ [ARP7] | 1.76 ± 0.066 | 2.05 ± 0.079 | 2.2 ± 0.1 | 2.7 ± 0.072
10 | GPRNTEEKGWVPVTKLG [RPS2] | 3.55 ± 0.1 | 3.46 ± 0.1 | 3.61 ± 0.05 | 3.67 ± 0.082
11 | SKKGSLENNIREFPEYF [RPL10] | 2.95 ± 0.12 | 3.23 ± 0.084 | 3.29 ± 0.057 | 3.36 ± 0.069
12 | QQQLQQNSKEKNGLGLN [MED2] | 2.5 ± 0.29 | 3.26 ± 0.12 | 2.42 ± 0.26 | 2.96 ± 0.13
13 | RKYEISFGKIYVTKPMV [RPB2] | 1.95 ± 0.092 | 2.44 ± 0.21 | 1.88 ± 0.19 | 2.16 ± 0.11
14 | FLSLLNLATKGMVKLNE [REC8] | 2.77 ± 0.07 | 1.59 ± 0.055 | 1.6 ± 0.078 | 1.58 ± 0.045
15 | NHKIIARVKAFDRHCNM [SMD2] | 1.7 ± 0.07 | 1.72 ± 0.08 | 2.1 ± 0.086 | 1.93 ± 0.058
16 | AQDVALAKKWFLQHPDE [PRP8] | 2.7 ± 0.089 | 2.38 ± 0.095 | 2.33 ± 0.13 | 2.67 ± 0.077
17 | LFWKVKEEEGSFNNVIG [PRE2] | 3.13 ± 0.12 | 3.39 ± 0.11 | 3.21 ± 0.071 | 3.2 ± 0.11
18 | DLVHIKDSLDNTFVTRL [RPS4A] | 2.79 ± 0.12 | 2.83 ± 0.091 | 3 ± 0.094 | 3.04 ± 0.058
19 | LLERYIGNLITRQFEGR [PRP8] | 2.59 ± 0.11 | 2.63 ± 0.18 | 2.43 ± 0.15 | 1.99 ± 0.071
20 | VLRLATNKGPLAQIWLA [MCD1] | 1.93 ± 0.11 | 1.31 ± 0.052 | 1.51 ± 0.15 | 1.17 ± 0.055
21 | DWEKYKAPLEDDDKKPD [RPT1] | 3.16 ± 0.12 | 3.56 ± 0.19 | 2.96 ± 0.21 | 3.31 ± 0.16
22 | YQLNGVAPFMIKYEFNG [YMR129W/POM152] | 2.63 ± 0.097 | 2.64 ± 0.075 | 2.62 ± 0.082 | 2.73 ± 0.057
23 | ELLAYQFASPVRWIETQ [FAS2] | 1.77 ± 0.021 | 1.86 ± 0.019 | 1.92 ± 0.027 | 1.728 ± 0.016
24 | PSVGVKTMKTFVIHIQE [RPB5] | 2.83 ± 0.087 | 2.82 ± 0.13 | 2.47 ± 0.13 | 2.76 ± 0.1
25 | SSLSAIIVFGYPESISN [YDL088C/ASM4] | 1.75 ± 0.067 | 1.88 ± 0.046 | 2.16 ± 0.086 | 2.01 ± 0.062
26 | KLTSEETVFNYRLMIKR [GRR1] | 3.02 ± 0.12 | 2.96 ± 0.12 | 2.56 ± 0.12 | 2.82 ± 0.095
27 | ICERIFEQGQALKEDER [RRI2] | – | – | – | 3.21 ± 0.19
28 | ENNSDSNSNNNGNKDSS [SWI1] | 2.95 ± 0.089 | 3.12 ± 0.076 | 3.05 ± 0.06 | 3.04 ± 0.068

Row | Sequence | protein stability index (doa10∆) | protein stability index (pdr5∆) | protein stability index (san1∆) | protein stability index (ubr1∆)
29 | YHLTKAVKLGDLKKFTS [RPN3] | 1.77 ± 0.065 | 1.8 ± 0.062 | 1.54 ± 0.11 | 1.78 ± 0.052
30 | AVRLILPGELAKHAVSE [HTB1] | 3.23 ± 0.095 | 2.98 ± 0.064 | 1.52 ± 0.17 | 3.28 ± 0.064
31 | NHVKQFYERLDKSTTQL [MED11] | 2.47 ± 0.061 | 2.64 ± 0.081 | 2.5 ± 0.052 | 2.62 ± 0.083
32 | SGEDTNVGLPILKSLKN [YOR098C/NUP1] | 2.95 ± 0.1 | 3.16 ± 0.13 | 2.85 ± 0.069 | 3.28 ± 0.12
33 | NNNGLPQNGNINNNINI [GAL11] | 3.13 ± 0.05 | 3.29 ± 0.071 | 3.39 ± 0.044 | 3.11 ± 0.048
34 | LIVDTHVQFRLGNVDAF [PRP8] | 2.75 ± 0.11 | 2 ± 0.11 | 2.32 ± 0.13 | 1.72 ± 0.066
35 | KDKTKNISAEIIRHEKE [SMC4] | 2.58 ± 0.12 | 3.02 ± 0.12 | 2.99 ± 0.086 | 2.91 ± 0.1
36 | FKGTDFVHSVKKFLRVR [SRB4] | 2.66 ± 0.077 | 2.64 ± 0.066 | 2.83 ± 0.058 | 2.87 ± 0.054
37 | KREASRGFFDILSLATE [MCD1] | 3.08 ± 0.083 | 3.21 ± 0.06 | 2.91 ± 0.063 | 3.11 ± 0.05
38 | WQQVTALAQQKLLTPQD [GAL11] | 2.29 ± 0.058 | 2.38 ± 0.068 | 2.18 ± 0.085 | 2.45 ± 0.06
39 | TIRLWECGTGTTIHTFN [RPN14] | 2.11 ± 0.18 | 2.4 ± 0.11 | 2.21 ± 0.12 | 1.99 ± 0.13
40 | VNGSITDQLIQNIETRQ [NUT1] | 3.22 ± 0.079 | 3.01 ± 0.092 | 3.05 ± 0.071 | 3.15 ± 0.042
41 | DSLIQLANRSKENFILD [YJL039C/NUP192] | – | – | 3.23 ± 0.14 | 3.13 ± 0.11
42 | SHTDQPANVLLVQSLND [NNF1] | 2.07 ± 0.071 | 2.16 ± 0.083 | 2.23 ± 0.18 | 2.7 ± 0.09
43 | LSNIPLLLITHHSWSQS [ARP9] | 2.25 ± 0.075 | 1.6 ± 0.045 | 1.51 ± 0.073 | 1.96 ± 0.047
44 | SASLFKQRKNPRRIAWT [RPL24A] | 2.55 ± 0.11 | 2.9 ± 0.097 | 2.96 ± 0.087 | 3.08 ± 0.059
45 | GMPHKFYQGKTGVVYNV [RPL21A] | 2.84 ± 0.088 | 2.86 ± 0.077 | 2.53 ± 0.078 | 2.61 ± 0.067
46 | LITKANKVSYYGNPTSK [RTT102] | 2.21 ± 0.044 | 1.89 ± 0.042 | 1.97 ± 0.089 | 2.2 ± 0.045
47 | TSIANAFRRIMISEVPS [RPC40] | 1.71 ± 0.043 | 1.83 ± 0.046 | 2.45 ± 0.061 | 1.88 ± 0.042
48 | YLHDNASKVLLKIFLYL [IRR1] | 1.92 ± 0.099 | 1.64 ± 0.075 | 1.42 ± 0.093 | 1.77 ± 0.053
49 | ENIAQMKPKAEKESDDG [SMC4] | 3.1 ± 0.26 | 3.16 ± 0.23 | – | 3.74 ± 0.2
50 | LTNQLYKNHELLKLERK [SNF2] | 3.15 ± 0.063 | 3.12 ± 0.059 | 3.11 ± 0.039 | 3.2 ± 0.053
51 | KQLVEKAELRLAIADSP [ECM29] | – | 3.38 ± 0.29 | – | 3.29 ± 0.16
52 | KDDGAFVKFLSKKGSLE [RPL10] | 3.51 ± 0.18 | 3.32 ± 0.14 | 3.06 ± 0.068 | 3.25 ± 0.064
53 | EKIKSKKINRRNETSVD [YCG1] | 3.38 ± 0.094 | 3.09 ± 0.085 | 3.19 ± 0.08 | 3.33 ± 0.069
54 | LLSIPISCPLIGVIQLA [FAS1] | 1.23 ± 0.07 | 1.27 ± 0.068 | 1.23 ± 0.12 | 1.08 ± 0.064
55 | YYEQFRPDLIKEDHPLE [SIR3] | 2.68 ± 0.058 | 2.73 ± 0.066 | 3.02 ± 0.043 | 2.67 ± 0.046
